This note sets out measurements from paper PMC7567106, “Generalized enzymatic mechanism of catalysis by tetrameric L-asparaginases from mesophilic bacteria” (Scientific Reports, 2020).

The target in assay [1] is T1, EcAII (type II L-asparaginase from E. coli) (Escherichia coli, UniProt P00805).
T1 construct: gene ansB; periplasmic enzyme, homotetramer; preparation not described here
T1 sequence (P00805 23-348): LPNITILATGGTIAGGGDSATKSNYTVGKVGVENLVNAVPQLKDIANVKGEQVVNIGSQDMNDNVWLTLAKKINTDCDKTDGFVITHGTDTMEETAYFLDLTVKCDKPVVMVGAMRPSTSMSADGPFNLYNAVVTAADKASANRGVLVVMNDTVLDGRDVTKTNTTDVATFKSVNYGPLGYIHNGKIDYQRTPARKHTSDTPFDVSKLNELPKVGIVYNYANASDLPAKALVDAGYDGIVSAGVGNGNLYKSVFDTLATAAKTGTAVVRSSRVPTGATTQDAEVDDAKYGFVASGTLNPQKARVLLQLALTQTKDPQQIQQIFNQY
Nature of the assay: Q-TOF LC/MS of substrate, product and hydroxamate (data not shown). Format: biochemical. Particulars: 25 mM HEPES pH 7.7; 8 mM substrate, 27.8 nM enzyme, 0.4 M NH2OH.

Assay [2] has as its target L-glutaminase-asparaginase from Pseudomonas 7A, K173M variant (Pseudomonas 7A) (UniProt Q88K39). Nature of the assay: crystal structure; co-crystallised with small ligands, hanging drop; protein 12.5-13.5 mg/ml in 50 mM HEPES pH 7.0, 200 mM NaCl; four protomers in the asymmetric unit as two intimate dimers (A,B) and (C,D).
The target of assay [3] is L-glutaminase-asparaginase from Pseudomonas 7A, wild type (Pseudomonas 7A) (UniProt Q88K39). Described as above.

For `NC(=O)C[C@H](N)C(=O)O` [L-Asn], the “Q-TOF LC/MS of substrate, product and hydroxamate (data not shown)” value in assay [1] is listed as “EcAII(wt) with L-Asn were monitored (not shown)”.

For the compound “L-glutaminase-asparaginase from Pseudomonas 7A, K173M variant (from UniProt Q88K39 26-362) (enzyme)”, in assay [2], the stoichiometry N came out at 4.

For the compound “L-glutaminase-asparaginase from Pseudomonas 7A, wild type (from UniProt Q88K39 26-362) (enzyme)”, in assay [3], the stoichiometry N came to 4.
